Tested on: MS2 coat protein
Experiment: apparent KD of MS2 coat protein; designed switch direction (-1 OFF switch, 1 ON switch): -1; higher = weaker reporter binding
In short: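 Normalised cluster fluorescence was curve-fitted, and each design's median over clusters is its apparent KD. Before this, SNAP-549-labelled MS2 coat protein was titrated from 0.7 or 1.5 nM, doubling to 3 µM, over RNA switches transcribed on Illumina chips by stalled E. coli RNA polymerase. Titrations had no input, 200 uM small-molecule ligand, or an oligonucleotide input, and steps lasted 0.8–1.5 h (lowest) to 10–20 min (highest).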

[1] = Eterna round: R95, input ligand: FMN 200 uM
[2] = Eterna round: R95, input ligand: microRNA oligo, concentration not stated
[3] = Eterna round: R95, input ligand: none
[4] = input ligand: microRNA oligo, concentration not stated

Sequence	apparent KD of MS2 coat protein (input ligand: FMN 200 uM) [nM]	apparent KD of MS2 coat protein (input ligand: none) [nM]	apparent KD of MS2 coat protein [1] [nM]	apparent KD of MS2 coat protein [2] [nM]	apparent KD of MS2 coat protein [3] [nM]	apparent KD of MS2 coat protein [4] [nM]
GACUUCUCUGAGGAUAUUGCAUCAUACGAUAAAUAAGAAGGCAGAACAUGAGGAUCACCCAUGUGGGUUUCAAG [Bingo-Bango-34] (Eterna round: R97, puzzle: Exclusion 6)	170	81.4	–	–	–	–
GACUUCUCUGAGGAUAUUGCAUCAUACGAUAAAUAAGAAGGCAGAACAUGAGGAUCACCCAUGUGGGUUUUUAG [Bingo-Bango-32] (Eterna round: R97, puzzle: Exclusion 6)	135	68.6	–	–	–	–
GACUUCUGAGGAUAUACAUAGAUUUACAUGAGGAUCACCCAUGUUCCUCUAUGUAUAAAUGUAGAAGGCAGAAGAU [Mat - Exclusion 5 - JL Mod - D66] (Eterna round: R97, puzzle: Exclusion 5)	73.8	13.2	–	–	–	–
GACUUGUCAGGAUAUCUUACAUUAACAUCGUAGUUACCGUUGGAGAAGGGACAUGAGGAUCACCCAUGUUUGGC [tap-tap-tappy25] (Eterna round: R97, puzzle: Exclusion 4)	41.8	28.7	–	–	–	–
GAGAAACAUGAGGAUCACCCAUGUAAGGAUAUGGCGAGAGCUGGAGUACUAGCGCCGUUCAGAAGGUACAUGAG [Eternabot (L2) Solution 27] (Eterna round: R97, puzzle: Exclusion 1)	218	95.9	–	–	–	–
GAGAACUGAGGAUAUACAUGAGGAUCACCCAUGUUAAGAAGAUAGUAUUGAUGGUUCUGUAGAAGGCAGAGAGA [JR_Ex3_Sub066] (Eterna round: R97, puzzle: Exclusion 3)	34.5	30.8	–	–	–	–
GAGAAGGUAGGAUAUACGAAGAAAGAGGGUAGGAAUAAGACACAUGAGGAUCACCCAUGUAGAAGGACCAAGAG [Mat - Exclusion 2 - Mod of my Tesla design - D49] (puzzle: Exclusion 2)	–	–	32.4	21.2	22.9	–
GAGAAGUGAGGAUAUGCGAUAAGGAUGAAAGGAAGGAAUGAGUAGAAGGCACAUGAGGAUCACCCAUGUAGAGU [JR_Exclu4_Sub080] (puzzle: Exclusion 4)	–	–	25.3	21.3	21	–
GAGAGACGAGGAUAUGCAGGAGUGCAGUCAGGUUCCAAAAUACAUGAGGAUCACCCAUGUAGAAGGUGUCAUCU [Eternabot (L2) Solution 26] (Eterna round: R97, puzzle: Exclusion 2)	16.6	15.6	–	–	–	–
GAGAGAGACAUAGGAUAUUCACCCACACAUGAGGAAGAAGGAUGUAGACAUGAGGAUCACCCAUGUGGAUCACCCAUGUUUGUG [All by luck] (Eterna round: R96, puzzle: Exclusion NG 1)	22	24.7	–	–	–	12.1
GAGAUACAUGAGGAUCACCCAUGUGAGGAUAUGAGCACGCCGGUGACGGUGAUAAGAAUCAGAAGGCACAAUGG [Mat - Exclusion 1 - JL Mod - D31] (Eterna round: R97, puzzle: Exclusion 1)	338	453	–	–	–	–
GAGAUGUGAGGAUAUCUAGACCGCGAAAGAGCCGCGGUCCGAGAGAAGGCACAUGAGGAUCACCCAUGUGAUGA [Tiesri] (puzzle: Exclusion 4)	–	–	–	39.4	–	–
GAGCAGUGAGGAUAUACAUGAGGAUCACCCAUGUAAUGGUAGUCGGGAUUAAUUUGGUGUAGAAGGCGCUUAUU [JR_Ex3_Sub021] (Eterna round: R97, puzzle: Exclusion 3)	64	79.9	–	–	–	–
GAGCCAUCGUGAGAUGGCUAAUUUACAUGAGGAUCACCCAUGUAGGAUAUCGAUUGCUUUGCAGUCGAGAAGGACAUGUUUAAU [JL ENG3 3.98] (Eterna round: R96, puzzle: Exclusion NG 3)	71.6	36.2	–	–	–	28.3
GAGGGACAUGAGGAUCACCCAUGUGAGGAUAUGUAAGAGAGAAGAGAGAGGAUAAGAAACAGAAGGCGCGGGAG [JR_Exclu1_Sub090] (puzzle: Exclusion 1)	–	–	33.9	44	77.1	–
GAGUACUUAGGAUAUACAUGAGGAUCACCCAUGUCUAGGCGGCGCUGGGUCCCUCGCAGUAGAAGGAAGCGCUG [Ceeranat] (puzzle: Exclusion 3)	–	–	–	20.6	–	–
GAGUGACAUGAGGAUCACCCAUGUGAGGAUAUCCGAUGGACCAAAUUAACAAUAGAAGGGAGAAGGCGCAUAAA [Exclusion 1 V8] (puzzle: Exclusion 1)	–	–	133	152	158	–
GAGUGACAUGAGGAUCACCCAUGUGAGGAUAUCGGACGGACCUAGUUAACAUCCGCCGCGAGAAGGCACAUCGG [Exclusion 1 V23] (puzzle: Exclusion 1)	–	–	–	136	–	–

Sequence	apparent KD of MS2 coat protein (input ligand: FMN 200 uM) [nM]	apparent KD of MS2 coat protein (input ligand: none) [nM]	apparent KD of MS2 coat protein [1] [nM]	apparent KD of MS2 coat protein [2] [nM]	apparent KD of MS2 coat protein [3] [nM]	apparent KD of MS2 coat protein [4] [nM]
GAGUUACAUGAGGAUCACCCAUGUGAGGAUAUGAGUCAGUCACGGUGACGUGGCUGACUCAGAAGGCACAAAGG [Mat - Exclusion 1 - JL Mod - D37] (Eterna round: R97, puzzle: Exclusion 1)	186	83.8	–	–	–	–
GAUAGAGAGCAGGAUAUCUUAGAAAUGUAUUAUAGAGAAGGGCUCACAUGAGGAUCACCCAUGUGGUCCUAGAU [JL Dibiri mod 15] (Eterna round: R96, puzzle: Exclusion 6)	94.3	19.6	–	–	–	14.4
GAUAGAGAGCAGGAUAUCUUAGAAAUGUAUUAUAGAGAAGGGCUCACAUGAGGAUCACCCAUGUGGUCCUAGAU [JL Dibiri mod 15] (puzzle: Exclusion 6)	–	–	–	16	–	–
GAUAUGUAAGGAUAUCGUGCAAGUUUCAAAAGAGGCUUGUGCGAGAAGGUACAUGAGGAUCACCCAUGUAGGUU [Omei Ex4 B14] (Eterna round: R97, puzzle: Exclusion 4)	116	29.6	–	–	–	–
GAUCAACAUGAGGAUCACCCAUGUGAGGAUAUAGACCUAAGGCGCAAGCUAUGGGACUCUAGAAGGCGCGGAAU [Eternabot (L2) Solution 93] (Eterna round: R97, puzzle: Exclusion 1)	40	36.6	–	–	–	–
GAUCACUGAGGAUAUACACAGAUACAAAGUAUCUGAUUGUGACAUGAGGAUCACCCAUGUAGAAGGCAGAGGUC [Omei Ex2 B6] (Eterna round: R97, puzzle: Exclusion 2)	179	31.1	–	–	–	–
GAUCAUGCAGGAUAUACAGUAUCCAUGAAAACAUGGAUCUCACAUGAGGAUCACCCAUGUAGAAGGGCAUGAUC [Omei Ex2 A25] (Eterna round: R97, puzzle: Exclusion 2)	40.1	41.4	–	–	–	–
GAUCAUGCAGGAUAUACAUAAACCAUGAAAACAUGGCUCAAACAUGAGGAUCACCCAUGUAGAAGGGCAUGAUC [Omei Ex2 A19] (Eterna round: R97, puzzle: Exclusion 2)	69.1	31.5	–	–	–	–
GAUCAUGCAGGAUAUACAUGGAACAUUAAAUCAUGAAUUUCACAUGAGGAUCACCCAUGUAGAAGGGCAUGAUC [Omei Ex2 A16] (Eterna round: R97, puzzle: Exclusion 2)	32.5	31.6	–	–	–	–
GAUCAUGCAGGAUAUACAUUAACCAUGAAAACAUGGAUCAAACAUGAGGAUCACCCAUGUAGAAGGGCAUGAUC [Omei Ex2 A21] (Eterna round: R97, puzzle: Exclusion 2)	46.6	25.9	–	–	–	–
GAUCCCAUUGUUAGGAUAUAUAGCCUAACGCGAGUGUAGAAGGGACAUGAGGAUCACCCAUGUGUGCAUUAGGG [Eternabot (L2) Solution 96] (Eterna round: R97, puzzle: Brourd's mod of Exclusion 4)	37.2	43.8	–	–	–	–
GAUCCUUCUGUUAGGAUAUGCAACGGGCUUCCGCAGCAGAAGGAACAUGAGGAUCACCCAUGUCAAAUAAAAUC [JL-BMX4-4.36 ViennaUCT mod] (Eterna round: R97, puzzle: Brourd's mod of Exclusion 4)	54.1	18.7	–	–	–	–
GAUGCUUCGGCAUCUACAAGCUUUUUGCUCGUCUUAUUAACAUGAGGAUCACCCAUGUUAAUGAGACCUCAUGUAUU [Sensor v3 - turn-off variant 2 - 7] (puzzle: Sensor v3, turn-off variant 2)	–	–	13.5	14.9	11.1	–
GAUUAACAUGAGGAUCACCCAUGUGAGGAUAUGGACUGGCUCACUUUUCGAUUCCCGUCUAGAAGGCACAUCUU [1986#10] (Eterna round: R97, puzzle: Exclusion 1)	85.9	41.1	–	–	–	–
GAUUAACAUGAGGAUCACCCAUGUGAGGAUAUGGACUUGCCCACUUAACCAUUAGAGUCUAGAAGGCGCAUCUC [1986#28] (Eterna round: R97, puzzle: Exclusion 1)	27.1	22.7	–	–	–	–
GAUUAUGCGAGCUUUAGGGACAUGAGGAUCACCCAUGUUCGUCUUAUUAGUCUAGAUACGCUGACAUACCUAAAUCU [JMF 96] (puzzle: Sensor v3, turn-off variant 1)	–	–	14.5	18.5	15.8	–
GAUUAUGCGAGCUUUAGGGACAUGAGGAUCACCCAUGUUCGUCUUAUUGAUCUAGGUACGCUAACAUACCUAAAUCU [Mod of one of jandersonlee's solutions 3] (puzzle: Sensor v3, turn-off variant 1)	–	–	23	36.3	23	–

From the supplement of paper PMC9170038
